Read-outs that look alike come from different tables or passages of the source.
How the values were obtained:
[1] = target: Dns136-α-synuclein (Y136C, dansyl-labelled) (human) (UniProt P37840); assay: other fluorescence titration
[2] = target: α-synuclein peptide residues 118–140 containing C136, dansyl-labelled (DnsC23) (human) (UniProt P37840); assay: other fluorescence titration
[3] = target: Dns100-α-synuclein (L100C, dansyl-labelled) (human) (UniProt P37840); assay: other fluorescence titration
[4] = target: Dns136-α-synuclein (Y136C, dansyl-labelled) (human) (UniProt P37840); assay: other fluorescence titration; remark: listed apart in the source
[5] = target: Dns136-α-synuclein (Y136C, dansyl-labelled) (human) (UniProt P37840); assay: other fluorescence titration; remark: listed apart in the source
[6] = target: Dns100-α-synuclein (L100C, dansyl-labelled) (human) (UniProt P37840); assay: FRET or BRET
[7] = target: Dns136-α-synuclein (Y136C, dansyl-labelled) (human) (UniProt P37840); assay: FRET or BRET
[8] = target: Dns100-α-synuclein (L100C, dansyl-labelled) (human) (UniProt P37840); assay: other fluorescence titration; remark: listed apart in the source

“glucocerebrosidase (taliglucerase alfa, recombinant GCase) (from UniProt P04062 40-533) (enzyme)” showed a Kd [1] of 11 µM, a Kd [2] of 2 µM and a Kd [3] of 40 µM. It also gave a Kd [4] of 8 µM, a Kd [5] of 1 µM and a <λ> shift [6] of 2 nm. It also gave a <λ> shift [7] of 6 nm and a Kd [8] of 1 µM.

From publication PMC3552326
